Data taken from patent US20260242735A1 (UNIVERSIT T BASEL, published 2026).

Assays:
Assay in all cases: flow cytometry, alanine scan
human CD33 G318A = human CD33 G318A (human, UniProt P20138 18-364)
Protocol: (§1) An alanine scan on human CD33 was performed to the determine the residues on CD33 that are involved in binding to the antibodies investigated. […] Briefly, a mutation library of CD33 was created by high-throughput, site-directed mutagenesis. Each residue was individually mutated to alanine, with alanine codons mutated to serine. The mutant library was arrayed in 384-well microplates and transiently transfected into HEK293-T. Following transfection, cells were incubated with the indicated antibodies (IgG or Fab) at concentrations pre-determined using an independent immunofluorescence titration curve on wild type CD33. […] Binding of each antibody to each mutant clone was determined in duplicates. For each point, background fluorescence was subtracted from the raw data, which were then normalized to antibody reactivity with wild type CD33.
(§2) Critical residues for antibody binding (outlined in dark grey) were residues whose mutations led to a binding of the test Abs of less than 20%. Additional secondary residues (outlined in light grey) were identified that led to a binding of the test Abs of between 20 and 40% as compared to the wild type CD33.

human CD33 P319A = human CD33 P319A (human, UniProt P20138 18-364)
Protocol: as §1, §2

human CD33 T320A = human CD33 T320A (human, UniProt P20138 18-364)
Protocol: as §1, §2

human CD33 E321A = human CD33 E321A (human, UniProt P20138 18-364)
Protocol: as §1, §2

human CD33 T322A = human CD33 T322A (human, UniProt P20138 18-364)
Protocol: as §1, §2

human CD33 S323A = human CD33 S323A (human, UniProt P20138 18-364)
Protocol: as §1, §2

human CD33 S324A = human CD33 S324A (human, UniProt P20138 18-364)
Protocol: as §1, §2

human CD33 C325A = human CD33 C325A (human, UniProt P20138 18-364)
Protocol: as §1, §2

human CD33 S326A = human CD33 S326A (human, UniProt P20138 18-364)
Protocol: as §1, §2

human CD33 G327A = human CD33 G327A (human, UniProt P20138 18-364)
Sequence of human CD33 G327A (P20138 18-364 G327A limits assumed): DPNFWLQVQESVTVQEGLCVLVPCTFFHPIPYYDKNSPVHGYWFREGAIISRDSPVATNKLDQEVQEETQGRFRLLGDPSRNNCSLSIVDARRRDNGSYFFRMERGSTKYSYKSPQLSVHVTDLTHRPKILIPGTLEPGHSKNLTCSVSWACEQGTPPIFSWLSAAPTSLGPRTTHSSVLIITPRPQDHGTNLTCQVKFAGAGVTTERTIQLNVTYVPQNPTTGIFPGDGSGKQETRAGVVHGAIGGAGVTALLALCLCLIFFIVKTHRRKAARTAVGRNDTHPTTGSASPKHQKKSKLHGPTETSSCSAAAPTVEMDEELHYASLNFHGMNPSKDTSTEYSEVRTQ
Protocol: as §1, §2

human CD33 A328S = human CD33 A328S (human, UniProt P20138 18-364)
Protocol: as §1, §2

human CD33 A329S = human CD33 A329S (human, UniProt P20138 18-364)
Protocol: as §1, §2

human CD33 P330A = human CD33 P330A (human, UniProt P20138 18-364)
Sequence of human CD33 P330A (P20138 18-364 P330A limits assumed): as the sequence (P20138 18-364 G327A limits assumed) above, with A310G, P313A counted along it
Protocol: as §1, §2

human CD33 T331A = human CD33 T331A (human, UniProt P20138 18-364)
Protocol: as §1, §2

human CD33 V332A = human CD33 V332A (human, UniProt P20138 18-364)
Sequence of human CD33 V332A (P20138 18-364 V332A limits assumed): as the sequence (P20138 18-364 G327A limits assumed) above, with A310G, V315A counted along it
Protocol: as §1, §2

human CD33 E333A = human CD33 E333A (human, UniProt P20138 18-364)
Sequence of human CD33 E333A (P20138 18-364 E333A limits assumed): as the sequence (P20138 18-364 G327A limits assumed) above, with A310G, E316A counted along it
Protocol: as §1, §2

human CD33 M334A = human CD33 M334A (human, UniProt P20138 18-364)
Protocol: as §1, §2

human CD33 D335A = human CD33 D335A (human, UniProt P20138 18-364)
Protocol: as §1, §2

human CD33 E336A = human CD33 E336A (human, UniProt P20138 18-364)
Protocol: as §1, §2

human CD33 E337A = human CD33 E337A (human, UniProt P20138 18-364)
Sequence of human CD33 E337A (P20138 18-364 E337A limits assumed): as the sequence (P20138 18-364 G327A limits assumed) above, with A310G, E320A counted along it
Protocol: as §1, §2

human CD33 L338A = human CD33 L338A (human, UniProt P20138 18-364)
Protocol: as §1, §2

human CD33 H339A = human CD33 H339A (human, UniProt P20138 18-364)
Sequence of human CD33 H339A (P20138 18-364 H339A limits assumed): as the sequence (P20138 18-364 G327A limits assumed) above, with A310G, H322A counted along it
Protocol: as §1, §2

human CD33 Y340A = human CD33 Y340A (human, UniProt P20138 18-364)
Protocol: as §1, §2

human CD33 A341S = human CD33 A341S (human, UniProt P20138 18-364)
Protocol: as §1, §2

human CD33 S342A = human CD33 S342A (human, UniProt P20138 18-364)
Protocol: as §1, §2

human CD33 L343A = human CD33 L343A (human, UniProt P20138 18-364)
Protocol: as §1, §2

human CD33 N344A = human CD33 N344A (human, UniProt P20138 18-364)
Protocol: as §1, §2

human CD33 F345A = human CD33 F345A (human, UniProt P20138 18-364)
Protocol: as §1, §2

human CD33 H346A = human CD33 H346A (human, UniProt P20138 18-364)
Protocol: as §1, §2

human CD33 G347A = human CD33 G347A (human, UniProt P20138 18-364)
Sequence of human CD33 G347A (P20138 18-364 G347A limits assumed): as the sequence (P20138 18-364 G327A limits assumed) above, with A310G, G330A counted along it
Protocol: as §1, §2

human CD33 M348A = human CD33 M348A (human, UniProt P20138 18-364)
Protocol: as §1, §2

human CD33 N349A = human CD33 N349A (human, UniProt P20138 18-364)
Sequence of human CD33 N349A (P20138 18-364 N349A limits assumed): as the sequence (P20138 18-364 G327A limits assumed) above, with A310G, N332A counted along it
Protocol: as §1, §2

human CD33 P350A = human CD33 P350A (human, UniProt P20138 18-364)
Protocol: as §1, §2

human CD33 S351A = human CD33 S351A (human, UniProt P20138 18-364)
Sequence of human CD33 S351A (P20138 18-364 S351A limits assumed): as the sequence (P20138 18-364 G327A limits assumed) above, with A310G, S334A counted along it
Protocol: as §1, §2

human CD33 K352A = human CD33 K352A (human, UniProt P20138 18-364)
Sequence of human CD33 K352A (P20138 18-364 K352A limits assumed): as the sequence (P20138 18-364 G327A limits assumed) above, with A310G, K335A counted along it
Protocol: as §1, §2

human CD33 D353A = human CD33 D353A (human, UniProt P20138 18-364)
Protocol: as §1, §2

human CD33 T354A = human CD33 T354A (human, UniProt P20138 18-364)
Sequence of human CD33 T354A (P20138 18-364 T354A limits assumed): as the sequence (P20138 18-364 G327A limits assumed) above, with A310G, T337A counted along it
Protocol: as §1, §2

human CD33 S355A = human CD33 S355A (human, UniProt P20138 18-364)
Protocol: as §1, §2

human CD33 T356A = human CD33 T356A (human, UniProt P20138 18-364)
Protocol: as §1, §2

human CD33 E357A = human CD33 E357A (human, UniProt P20138 18-364)
Protocol: as §1, §2

human CD33 Y358A = human CD33 Y358A (human, UniProt P20138 18-364)
Protocol: as §1, §2

human CD33 S359A = human CD33 S359A (human, UniProt P20138 18-364)
Protocol: as §1, §2

human CD33 E360A = human CD33 E360A (human, UniProt P20138 18-364)
Protocol: as §1, §2

human CD33 V361A = human CD33 V361A (human, UniProt P20138 18-364)
Protocol: as §1, §2

human CD33 R362A = human CD33 R362A (human, UniProt P20138 18-364)
Protocol: as §1, §2

human CD33 T363A = human CD33 T363A (human, UniProt P20138 18-364)
Sequence of human CD33 T363A (P20138 18-364 T363A limits assumed): as the sequence (P20138 18-364 G327A limits assumed) above, with A310G, T346A counted along it
Protocol: as §1, §2

human CD33 Q364A = human CD33 Q364A (human, UniProt P20138 18-363)
Protocol: as §1, §2

Sequence of human CD33 P319A (P20138 18-364 P319A limits assumed): as the sequence (P20138 18-364 G327A limits assumed) above, with P302A, A310G counted along it
Sequence of human CD33 T322A (P20138 18-364 T322A limits assumed): as the sequence (P20138 18-364 G327A limits assumed) above, with T305A, A310G counted along it

B1: Refmab #3 (antibody, V domains shown)
VH: QVQLVQSGAEVKKPGSSVKVSCKASGYTFTDYNMHWVRQAPGQGLEWIGYIYPYNGGTGYNQKFKSKATITADESTNTAYMELSSLRSEDTAVYYCARGRPAMDYWGQGTLVTVSS
VL: DIQMTQSPSSLSASVGDRVTITCRASESVDNYGISFMNWFQQKPGKAPKLLIYAASNQGSGVPSRFSGSGSGTDFTLTISSLQPDDFATYYCQQSKEVPWTFGQGTKVEIK
notes: The alanine scan used IgG or Fab
- Mean % WT Binding (human CD33 G318A): 117 % of WT
- Mean % WT Binding (human CD33 P319A): 76.4 % of WT
- Mean % WT Binding (human CD33 T320A): 82.4 % of WT
- Mean % WT Binding (human CD33 E321A): 88.4 % of WT
- Mean % WT Binding (human CD33 T322A): 83.5 % of WT
- Mean % WT Binding (human CD33 S323A): 115 % of WT
- Mean % WT Binding (human CD33 S324A): 109 % of WT
- Mean % WT Binding (human CD33 C325A): 91.2 % of WT
- Mean % WT Binding (human CD33 S326A): 129 % of WT
- Mean % WT Binding (human CD33 G327A): 132 % of WT
- Mean % WT Binding (human CD33 A328S): 127 % of WT
- Mean % WT Binding (human CD33 A329S): 133 % of WT
- Mean % WT Binding (human CD33 P330A): 146 % of WT
- Mean % WT Binding (human CD33 T331A): 147 % of WT
- Mean % WT Binding (human CD33 V332A): 89.8 % of WT
- Mean % WT Binding (human CD33 E333A): 104 % of WT
- Mean % WT Binding (human CD33 M334A): 81.2 % of WT
- Mean % WT Binding (human CD33 D335A): 87.4 % of WT
- Mean % WT Binding (human CD33 E336A): 103 % of WT
- Mean % WT Binding (human CD33 E337A): 114 % of WT
- Mean % WT Binding (human CD33 L338A): 89.3 % of WT
- Mean % WT Binding (human CD33 H339A): 83.5 % of WT
- Mean % WT Binding (human CD33 Y340A): 88 % of WT
- Mean % WT Binding (human CD33 A341S): 138 % of WT
- Mean % WT Binding (human CD33 S342A): 121 % of WT
- Mean % WT Binding (human CD33 L343A): 77.4 % of WT
- Mean % WT Binding (human CD33 N344A): 118 % of WT
- Mean % WT Binding (human CD33 F345A): 84 % of WT
- Mean % WT Binding (human CD33 H346A): 133 % of WT
- Mean % WT Binding (human CD33 G347A): 118 % of WT
- Mean % WT Binding (human CD33 M348A): 133 % of WT
- Mean % WT Binding (human CD33 N349A): 121 % of WT
- Mean % WT Binding (human CD33 P350A): 90.7 % of WT
- Mean % WT Binding (human CD33 S351A): 91.8 % of WT
- Mean % WT Binding (human CD33 K352A): 96.3 % of WT
- Mean % WT Binding (human CD33 D353A): 98.3 % of WT
- Mean % WT Binding (human CD33 T354A): 89.1 % of WT
- Mean % WT Binding (human CD33 S355A): 85.6 % of WT
- Mean % WT Binding (human CD33 T356A): 108 % of WT
- Mean % WT Binding (human CD33 E357A): 120 % of WT
- Mean % WT Binding (human CD33 Y358A): 140 % of WT
- Mean % WT Binding (human CD33 S359A): 135 % of WT
- Mean % WT Binding (human CD33 E360A): 123 % of WT
- Mean % WT Binding (human CD33 V361A): 97.6 % of WT
- Mean % WT Binding (human CD33 R362A): 114 % of WT
- Mean % WT Binding (human CD33 T363A): 91.5 % of WT
- Mean % WT Binding (human CD33 Q364A): 97.8 % of WT

B2: Refmab #4 (antibody, V domains shown)
VH: QVQLVQSGAEVKKPGESVKVSCKASGYTFTNYGMNWVKQAPGQGLEWMGWINTYTGEPTYADKFQGRVTMTTDTSTSTAYMEIRNLGGDDTAVYYCARWSWSDGYYVYFDYWGQGTSVTVSS
VL: DIVMTQSPDSLTVSLGERTTINCKSSQSVLDSSTNKNSLAWYQQKPGQPPKLLLSWASTRESGIPDRFSGSGSGTDFTLTIDSPQPEDSATYYCQQSAHFPITFGQGTRLEIK
notes: as for B1
- Mean % WT Binding (human CD33 G318A): 92.2 % of WT
- Mean % WT Binding (human CD33 P319A): 97 % of WT
- Mean % WT Binding (human CD33 T320A): 109 % of WT
- Mean % WT Binding (human CD33 E321A): 120 % of WT
- Mean % WT Binding (human CD33 T322A): 98.2 % of WT
- Mean % WT Binding (human CD33 S323A): 103 % of WT
- Mean % WT Binding (human CD33 S324A): 96.4 % of WT
- Mean % WT Binding (human CD33 C325A): 88.6 % of WT
- Mean % WT Binding (human CD33 S326A): 65.8 % of WT
- Mean % WT Binding (human CD33 G327A): 99.1 % of WT
- Mean % WT Binding (human CD33 A328S): 75.6 % of WT
- Mean % WT Binding (human CD33 A329S): 87.3 % of WT
- Mean % WT Binding (human CD33 P330A): 97.8 % of WT
- Mean % WT Binding (human CD33 T331A): 97.9 % of WT
- Mean % WT Binding (human CD33 V332A): 93.4 % of WT
- Mean % WT Binding (human CD33 E333A): 104 % of WT
- Mean % WT Binding (human CD33 M334A): 111 % of WT
- Mean % WT Binding (human CD33 D335A): 105 % of WT
- Mean % WT Binding (human CD33 E336A): 109 % of WT
- Mean % WT Binding (human CD33 E337A): 106 % of WT
- Mean % WT Binding (human CD33 L338A): 109 % of WT
- Mean % WT Binding (human CD33 H339A): 82 % of WT
- Mean % WT Binding (human CD33 Y340A): 112 % of WT
- Mean % WT Binding (human CD33 A341S): 104 % of WT
- Mean % WT Binding (human CD33 S342A): 105 % of WT
- Mean % WT Binding (human CD33 L343A): 116 % of WT
- Mean % WT Binding (human CD33 N344A): 71.2 % of WT
- Mean % WT Binding (human CD33 F345A): 109 % of WT
- Mean % WT Binding (human CD33 H346A): 111 % of WT
- Mean % WT Binding (human CD33 G347A): 72.1 % of WT
- Mean % WT Binding (human CD33 M348A): 85 % of WT
- Mean % WT Binding (human CD33 N349A): 95.5 % of WT
- Mean % WT Binding (human CD33 P350A): 93.1 % of WT
- Mean % WT Binding (human CD33 S351A): 114 % of WT
- Mean % WT Binding (human CD33 K352A): 103 % of WT
- Mean % WT Binding (human CD33 D353A): 74.9 % of WT
- Mean % WT Binding (human CD33 T354A): 106 % of WT
- Mean % WT Binding (human CD33 S355A): 91.5 % of WT
- Mean % WT Binding (human CD33 T356A): 107 % of WT
- Mean % WT Binding (human CD33 E357A): 110 % of WT
- Mean % WT Binding (human CD33 Y358A): 109 % of WT
- Mean % WT Binding (human CD33 S359A): 82.7 % of WT
- Mean % WT Binding (human CD33 E360A): 104 % of WT
- Mean % WT Binding (human CD33 V361A): 92.4 % of WT
- Mean % WT Binding (human CD33 R362A): 104 % of WT
- Mean % WT Binding (human CD33 T363A): 124 % of WT
- Mean % WT Binding (human CD33 Q364A): 81.5 % of WT
